Assay results reported in US20200199207A1 (MABYLON, published 2020).

T1: Peptide 11 (peanut)
T1 construct: also called linear Ara h 2 peptide 11
T1 peptide: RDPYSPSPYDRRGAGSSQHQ

T2: Peptide 8 (peanut)
T2 construct: also called linear Ara h 2 peptide 8
T2 peptide: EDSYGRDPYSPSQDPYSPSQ

T3: Peptide 6 (peanut)
T3 construct: also called linear Ara h 2 peptide 6
T3 peptide: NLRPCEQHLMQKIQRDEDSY

T4: Peptide 4 (peanut)
T4 construct: also called linear Ara h 2 peptide 4
T4 peptide: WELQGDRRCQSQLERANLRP

T5: Peptide 1 (peanut)
T5 construct: 20-mer of Ara h 2, overlap of 12 with its neighbours; also called linear Ara h 2 peptide 1
T5 peptide: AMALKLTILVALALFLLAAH

T6: Peptide 9 (peanut)
T6 construct: also called linear Ara h 2 peptide 9
T6 peptide: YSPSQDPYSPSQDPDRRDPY

T7: Peptide 2 (peanut)
T7 construct: also called linear Ara h 2 peptide 2
T7 peptide: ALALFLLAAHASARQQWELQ

T8: Peptide 5 (peanut)
T8 construct: also called linear Ara h 2 peptide 5
T8 peptide: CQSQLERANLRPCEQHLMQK

T9: Peptide 3 (peanut)
T9 construct: also called linear Ara h 2 peptide 3
T9 peptide: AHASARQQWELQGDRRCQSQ

T10: Peptide 16 (peanut)
T10 construct: also called linear Ara h 2 peptide 16
T10 peptide: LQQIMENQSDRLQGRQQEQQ

T11: Peptide 12 (peanut)
T11 construct: also called linear Ara h 2 peptide 12
T11 peptide: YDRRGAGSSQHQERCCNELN

T12: Peptide 13 (peanut)
T12 construct: also called linear Ara h 2 peptide 13
T12 peptide: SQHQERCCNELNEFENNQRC

T13: Peptide 20 (peanut)
T13 construct: also called linear Ara h 2 peptide 20
T13 peptide: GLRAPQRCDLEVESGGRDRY

T14: Peptide 17 (peanut)
T14 construct: also called linear Ara h 2 peptide 17
T14 peptide: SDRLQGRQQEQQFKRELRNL

T15: Peptide 15 (peanut)
T15 construct: also called linear Ara h 2 peptide 15
T15 peptide: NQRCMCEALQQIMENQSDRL

T16: Peptide 10 (peanut)
T16 construct: also called linear Ara h 2 peptide 10
T16 peptide: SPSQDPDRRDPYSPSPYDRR

T17: Peptide 7 (peanut)
T17 construct: also called linear Ara h 2 peptide 7
T17 peptide: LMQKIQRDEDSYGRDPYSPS

T18: Peptide 19 (peanut)
T18 construct: also called linear Ara h 2 peptide 19
T18 peptide: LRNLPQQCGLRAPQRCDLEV

T19: Peptide 18 (peanut)
T19 construct: also called linear Ara h 2 peptide 18
T19 peptide: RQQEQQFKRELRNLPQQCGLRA

T20: Peptide 14 (peanut)
T20 construct: also called linear Ara h 2 peptide 14
T20 peptide: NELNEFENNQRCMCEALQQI


Key:
Assay in all cases: competition ELISA, peptide in solution vs coated Ara h 2
[1] = target: T1, Peptide 11
Protocol: (§1) A competition ELISA was used to evaluate binding of exemplary anti-peanut antibodies of the present invention to linear Ara h 2 epitopes. Serial dilutions of linear Ara h 2 epitopes (100 μM down to 0.19 nM; peptides with a length of 20 amino acids and an overlap of 12 amino acids between the peptides) were pre-incubated with exemplary anti-peanut antibodies ([…]) for 1 hour at room temperature. The pre-incubated antibody-epitope mixtures were subsequently incubated on plates coated with full length Ara h 2 (coating overnight at 4° C. with 0.05 μg/ml Ara h 2 in PBS, followed by wash out and blocking with 2% BSA in PBS). The plates were subsequently washed and binding of MAbs to Ara h 2 was detected HRP-conjugated goat anti human Fc-gamma-specific antibody (Jackson ImmunoResearch, West Grove, Pa., USA) followed by measurement of the HRP activity using a tetramethylbenzidine substrate solution (TMB, Sigma-Aldrich Chemie GmbH, Buchs, Switzerland). As may be seen from Table 5, exemplary anti-peanut allergen antibody 32B10 binds to different linear Ara h 2 epitopes than 12G10 and 37D5.

[2] = target: T2, Peptide 8
Protocol: as §1

[3] = target: T3, Peptide 6
Protocol: as §1

[4] = target: T4, Peptide 4
Protocol: as §1

[5] = target: T5, Peptide 1
Protocol: as §1

[6] = target: T6, Peptide 9
Protocol: as §1

[7] = target: T7, Peptide 2
Protocol: as §1

[8] = target: T8, Peptide 5
Protocol: as §1

[9] = target: T9, Peptide 3
Protocol: as §1

[10] = target: T10, Peptide 16
Protocol: as §1

[11] = target: T11, Peptide 12
Protocol: as §1

[12] = target: T12, Peptide 13
Protocol: as §1

[13] = target: T13, Peptide 20
Protocol: as §1

[14] = target: T14, Peptide 17
Protocol: as §1

[15] = target: T15, Peptide 15
Protocol: as §1

[16] = target: T16, Peptide 10
Protocol: as §1

[17] = target: T17, Peptide 7
Protocol: as §1

[18] = target: T18, Peptide 19
Protocol: as §1

[19] = target: T19, Peptide 18
Protocol: as §1

[20] = target: T20, Peptide 14
Protocol: as §1

| binding result [1] | binding result [2] | binding result [3] | binding result [4] | binding result [5] | binding result [6] | binding result [7] | binding result [8] | binding result [9] | binding result [10] | binding result [11] | binding result [12] | binding result [13] | binding result [14] | binding result [15] | binding result [16] | binding result [17] | binding result [18] | binding result [19] | binding result [20] | Binder |
| --- | --- | --- | --- | --- | --- | --- | --- | --- | --- | --- | --- | --- | --- | --- | --- | --- | --- | --- | --- | --- |
| binds | binds | no binding (tested: 100 µM) | no binding (tested: 100 µM) | no binding (tested: 100 µM) | binds | no binding (tested: 100 µM) | no binding (tested: 100 µM) | no binding (tested: 100 µM) | no binding (tested: 100 µM) | no binding (tested: 100 µM) | no binding (tested: 100 µM) | no binding (tested: 100 µM) | no binding (tested: 100 µM) | no binding (tested: 100 µM) | binds | no binding (tested: 100 µM) | no binding (tested: 100 µM) | no binding (tested: 100 µM) | no binding (tested: 100 µM) | h37D5 (antibody, V domains shown, Recombinant human IgG; also called hMAb 37D5) VH: EEQLVESGGRLLRPGESLSLSCAAVGFNFGDFGMAWVRQPPGKGLEWVAGINWSGHSTGFVDSMKGRLTISRDSAKSSLFLQMNSLRGEDTAVYYCARVGRLCSGDICDSMGAFDLWGQGTMVTVSS VL: DIQMTQSPSTLSASIGDRVTITCRASQTIDNWLAWYQQRPGKAPKLLIYQASSLQSGVSSRFRGSGSGTEFTLTITSLQPDDFATYYCQKSNGYSRTFGQGTKVEIK |
| no binding (tested: 100 µM) | no binding (tested: 100 µM) | no binding (tested: 100 µM) | no binding (tested: 100 µM) | no binding (tested: 100 µM) | no binding (tested: 100 µM) | no binding (tested: 100 µM) | no binding (tested: 100 µM) | no binding (tested: 100 µM) | no binding (tested: 100 µM) | no binding (tested: 100 µM) | no binding (tested: 100 µM) | no binding (tested: 100 µM) | no binding (tested: 100 µM) | no binding (tested: 100 µM) | no binding (tested: 100 µM) | no binding (tested: 100 µM) | no binding (tested: 100 µM) | no binding (tested: 100 µM) | no binding (tested: 100 µM) | h7G6 (antibody, V domains shown, Recombinant human IgG; also called hMAb 7G6) VH: QVQLVESGGGVVQPGRSLRLSCAASGIAFNDYTMHWVRRSPDKGLEWVAAISYGGTNKYYADSVKGRFTISRDSSKNTLFLQMDSLRVEDTAVYYCARDSGYRSLLHWGQGTLVTVSS VL: EIVLTQSPLSLPVTPGEPASISCRSSQSLVHRNGYNYLDWYLQKPGQSPQLLIYMASKRASGVPDRFSGSGSGTEFTLKISRVEAEDVGIYYCMQALQTWTFGQGTKVEVN |
| no binding (tested: 100 µM) | no binding (tested: 100 µM) | no binding (tested: 100 µM) | no binding (tested: 100 µM) | no binding (tested: 100 µM) | no binding (tested: 100 µM) | no binding (tested: 100 µM) | no binding (tested: 100 µM) | no binding (tested: 100 µM) | no binding (tested: 100 µM) | no binding (tested: 100 µM) | no binding (tested: 100 µM) | no binding (tested: 100 µM) | no binding (tested: 100 µM) | no binding (tested: 100 µM) | no binding (tested: 100 µM) | no binding (tested: 100 µM) | no binding (tested: 100 µM) | no binding (tested: 100 µM) | no binding (tested: 100 µM) | h4B2 (antibody, V domains shown, Recombinant human IgG; also called hMAb 4B2) VH: QVQLQEAGPRLVKPSQTLSVTCTVSGASITIGGYYWSWIRQHPGKGLEWMGYIYSNGRTYYNPSLKSRIAMSIDTSKNQFSLKLTSVTAADTAIYFCAREAWETPLWGQGTLITVSS VL: DIQMTQSPSSLSASVGDRVTITCQANQDIVNSLNWFQHKPGTAPKVLIYDASKLETGVPSRFSGSGSGTHFTFTISGLQPEDFATYFCQQYENLPHTFGQGTKLEIR |
| no binding (tested: 100 µM) | no binding (tested: 100 µM) | no binding (tested: 100 µM) | no binding (tested: 100 µM) | no binding (tested: 100 µM) | no binding (tested: 100 µM) | no binding (tested: 100 µM) | no binding (tested: 100 µM) | no binding (tested: 100 µM) | no binding (tested: 100 µM) | no binding (tested: 100 µM) | no binding (tested: 100 µM) | no binding (tested: 100 µM) | no binding (tested: 100 µM) | no binding (tested: 100 µM) | no binding (tested: 100 µM) | no binding (tested: 100 µM) | no binding (tested: 100 µM) | no binding (tested: 100 µM) | no binding (tested: 100 µM) | h2F8 (antibody, V domains shown, Recombinant human IgG; also called hMAb 2F8) VH: EVQLVESGGGLVKPGGSLRLSCAASGFIFSDYNMNWVRQAPGKGLEWVSSITRSSRTIYYADSVKGRFTISRDNAKNSLHLQMNSLRDADTAVYYCAREDFDVSTGPYYMDVWGNGTTVIVSS VL: EIVLTQSPGTLSLSPGERATLSCRASQSVSNMFLVWYQQKPGQAPRLLMYGASTRATDIPDRFSGSGSGTDFTLTISRLEPEDFAVYYCQQNGNSPYTFGQGTKLEIK |
